# Results reported in patent US20070178448A1 (Scripps Research, published 2007).
# Non-standard residues stand in square brackets, D forms with d. No end group written: not given here. Phe(4-Ac) = CC(=O)c1ccc(C[C@H](N)C(=O)O)cc1
# Molecular target: T1, streptavidin (UniProt P22629 37-163, limits assumed)
# T1 construct: also called streptavidin coated microtiter plates (Pierce); strepavidin
# Assay: phage capture on streptavidin coated wells, elution with 10 µM biotin, titer of input and output phage
# Description: In a model phage selection experiment, wild-type phage and phage carrying the mutant SBP with p-azido-L-phenylalanine were exposed to streptavidin coated wells, followed by recovery of the bound phage. Titer of the recovered enriched phage following elution was used as a measure of the binding specificity of the page for the streptavidin.
# Specifically, two wells from a streptavidin coated microtiter plate (Pierce) were blocked with 300 μL of 4% BSA in 1×PBS at 4° C. overnight. After washing, separate streptavidin coated wells were incubated with similar numbers of phage (each in 100 μL) of either M13KE-SBP prepared in TTS/RS 3 or M13KE wild type phage at room temperature for 2 hours and washed 10 times with 200 μL PBST. The bound phage was eluted from the plate solid support with 10 μM biotin 1×PBS, pH 7.4. The input and output phage were titered (see, FIG. 9).
# T1 sequence (P22629 37-163 limits assumed): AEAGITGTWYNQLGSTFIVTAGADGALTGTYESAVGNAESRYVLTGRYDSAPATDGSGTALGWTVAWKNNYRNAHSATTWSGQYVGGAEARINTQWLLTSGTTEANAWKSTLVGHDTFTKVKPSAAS
binder,measurement,value
"AG[Phe(4-Ac)]TLLAHPQ (not fully specified (C-terminus), also called M13KE-SBP phage prepared in TTS/p-acetylphenylalanine 3; M13KE-SBP prepared in TTS/RS 3; not shown: pIII minor coat protein of M13 filamentous phage (vector M13KE); peptide fused at its N-terminus after the signal peptid)","recovery rate, fold over that of M13KE wild-type phage",9000 fold
